Target: T1, human claudin 6 (CLDN6) (human, UniProt P56747 1-220)
T1 construct: also called human CLDN6; hCLDN6
T1 sequence: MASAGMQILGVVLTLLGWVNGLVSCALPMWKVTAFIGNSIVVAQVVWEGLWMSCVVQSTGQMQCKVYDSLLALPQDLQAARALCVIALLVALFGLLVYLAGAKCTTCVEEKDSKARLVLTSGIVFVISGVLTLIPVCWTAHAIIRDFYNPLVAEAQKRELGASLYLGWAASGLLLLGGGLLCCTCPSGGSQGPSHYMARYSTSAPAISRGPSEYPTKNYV
Experiment: FACS, HEK293T/human CLDN6 cells
Procedure: For affinity determination, CLDN6 over-expressing HEK293T cells and cancer cell line PA-1 which express high levels of human CLDN6 were used to evaluate the binding activity of BG87P related engineering variants. Live cells were seeded in 96-well plate, and were incubated with a series of dilutions of chBG87P and engineered variants thereof. Goat anti-human IgG was used as second antibody to detect antibody binding to the cell surface. EC50 values for dose-dependent binding to CLDN6 expressing cell lines were determined by fitting the dose-response data to the four-parameter logistic model with GraphPad Prism. Cell binding activity of 1st round of BG87P humanization variants against HEK293T/human CLDN6 were compared to chBG87P and shown in FIG. 1A.
Beginning with the chBG87P antibody and BG87P-Bz0, several additional amino acid changes in the CDR regions of both VH and VL were made to further improve the biophysical properties for therapeutics use in human. The considerations included removing post translational modifications (PTM), improved heat stability (Tm), while maintaining binding activities, the resulted variants are BG87P-m1 (VH SEQ ID NO: 31 and VL SEQ ID NO: 8), BG87P-m2 (VH SEQ ID NO: 32 and VL SEQ ID NO: 8), BG87P-m3 (VH SEQ ID NO: 33 and VL SEQ ID NO: 8), and BG87P-m4 (VH SEQ ID NO: 34 and VL SEQ ID NO: 8) and BG87P-m5 (VH SEQ ID NO: 35 and VL SEQ ID NO: 14), BG87P-m6 (VH SEQ ID NO: 36 and VL SEQ ID NO 14), BG87P-m7 (VH SEQ ID NO: 37 and VL SEQ ID NO: 14), and BG87P-m8 (VH SEQ ID NO: 38 and VL SEQ ID NO: 14). Cell binding activity of chBG87P and BG87P-Bz0 related PTM removal variants against HEK293T/human CLDN6 was compared with chBG87P and BG87-Bz0, respectively ([…]). Cell binding affinity (EC50) and Emax (MFI) was normalized to chBG87P for directly comparison and ranking (Table 7).

B1: BG87P-Bz0 (antibody, V domains shown)
VH: QIQLVQSGAEVKKPGASVKVSCKASGYSFTDYHINWVRQAPGQRLEWMGWIYPGSGYTKYNEKFKVRVTLTVDTSASTAYMELSSLRSEDTAVYFCARSGIYHYVSSYYFDHWGKGTTVTVSS
VL: DIQMTQSPSTLSASVGDRVTITCKASQDVGTAVAWYQQKPGKSPKLLIYWASTRHTGVPSRFSGSGSGTEFTLTISSVQPDDFATYFCQQYSSYTFGGGTKVEIK
notes: also called BG87-Bz0
  EC50: 2.1 nM
  Emax ratio to BG87P: 0.56 ratio
  Top MFI Mean: 107000 MFI

B2: BG87P-Bz8 (antibody, V domains shown)
VH: QIQLVQSGAEVKKPGASVKVSCKASGYSFTDYHINWVRQAPGQRLEWMGWIYPGSGYTKYNEKFKVRVTLTVDTSASTAYMELSSLRSEDTAVYFCARSGIYHYVSSYYFDHWGKGTTVTVSS
VL: DIQMTQSPSTLSASVGDRVTITCKASQDVGTAVAWYQQKPGKSPKLLIYWASTRHTGVPSRFSGSGSGTEFTLTISSVQPDDFATYYCQQYSSYTFGGGTKVEIK
  EC50: 1.71 nM
  Emax ratio to BG87P: 0.68 ratio
  Top MFI Mean: 131000 MFI

B3: BG87P-Bz1 (antibody, V domains shown)
VH: QVQLVQSGAEVKKPGASVKVSCKASGYSFTDYHINWVRQAPGQRLEWMGWIYPGSGYTKYNEKFKVRVTLTVDTSASTAYMELSSLRSEDTAVYFCARSGIYHYVSSYYFDHWGKGTTVTVSS
VL: DIQMTQSPSTLSASVGDRVTITCKASQDVGTAVAWYQQKPGKSPKLLIYWASTRHTGVPSRFSGSGSGTEFTLTISSVQPDDFATYFCQQYSSYTFGGGTKVEIK
  EC50: 2.19 nM
  Emax ratio to BG87P: 0.52 ratio
  Top MFI Mean: 99700 MFI

B4: BG87P-m7 (antibody, V domains shown)
VH: QIQLVQSGAEVKKPGASVKVSCKASGYSFTDYHINWVRQAPGQRLEWMGWIYPGSGYTKYNEKFKGRVTLTVDTSASTAYMELSSLRSEDTAVYFCARSGIYHYVSSYYFDHWGKGTTVTVSS
VL: DIQMTQSPSTLSASVGDRVTITCKASQDVGTAVAWYQQKPGKSPKLLIYWASTRHTGVPSRFSGSGSGTEFTLTISSVQPDDFATYFCQQYSSYTFGGGTKVEIK
notes: PTM removal variant of BG87P-Bz0; constant regions not restated (parent: human IgG1/kappa)
  EC50: 2.43 nM
  Emax ratio to BG87P: 0.7 ratio
  Top MFI Mean: 134000 MFI

B5: BG87P-Bz4 (antibody, V domains shown)
VH: QIQLVQSGAEVKKPGASVKVSCKASGYSFTDYHINWVRQAPGQRLEWMGWIYPGSGYTKYNEKFKVRVTLTRDTSASTAYMELSSLRSEDTAVYFCARSGIYHYVSSYYFDHWGKGTTVTVSS
VL: DIQMTQSPSTLSASVGDRVTITCKASQDVGTAVAWYQQKPGKSPKLLIYWASTRHTGVPSRFSGSGSGTEFTLTISSVQPDDFATYFCQQYSSYTFGGGTKVEIK
  EC50: 1.88 nM
  Emax ratio to BG87P: 0.57 ratio
  Top MFI Mean: 110000 MFI

B6: BG87P-Bz2 (antibody, V domains shown)
VH: QIQLVQSGAEVKKPGASVKVSCKASGYTFTDYHINWVRQAPGQRLEWMGWIYPGSGYTKYNEKFKVRVTLTVDTSASTAYMELSSLRSEDTAVYFCARSGIYHYVSSYYFDHWGKGTTVTVSS
VL: DIQMTQSPSTLSASVGDRVTITCKASQDVGTAVAWYQQKPGKSPKLLIYWASTRHTGVPSRFSGSGSGTEFTLTISSVQPDDFATYFCQQYSSYTFGGGTKVEIK
  EC50: 2.65 nM
  Emax ratio to BG87P: 0.44 ratio
  Top MFI Mean: 84300 MFI

B7: BG87P-m6 (antibody, V domains shown)
VH: QIQLVQSGAEVKKPGASVKVSCKASGYSFTDYHINWVRQAPGQRLEWMGWIYPGSGYTKYNEKFKVRVTLTVDTSASTAYMELSSLRSEDTAVYFCARSGIYHYVSSYYFQHWGKGTTVTVSS
VL: DIQMTQSPSTLSASVGDRVTITCKASQDVGTAVAWYQQKPGKSPKLLIYWASTRHTGVPSRFSGSGSGTEFTLTISSVQPDDFATYFCQQYSSYTFGGGTKVEIK
notes: as for B4
  EC50: 2.34 nM
  Emax ratio to BG87P: 0.62 ratio
  Top MFI Mean: 118000 MFI

B8: BG87P-m5 (antibody, V domains shown)
VH: QIQLVQSGAEVKKPGASVKVSCKASGYSFTDYHINWVRQAPGQRLEWMGWIYPGSGYTKYNEKFKVRVTLTVDTSASTAYMELSSLRSEDTAVYFCARSGIYHYVSSYYFEHWGKGTTVTVSS
VL: DIQMTQSPSTLSASVGDRVTITCKASQDVGTAVAWYQQKPGKSPKLLIYWASTRHTGVPSRFSGSGSGTEFTLTISSVQPDDFATYFCQQYSSYTFGGGTKVEIK
notes: as for B4
  EC50: 4.19 nM
  Emax ratio to BG87P: 0.66 ratio
  Top MFI Mean: 126000 MFI

B9: BG87P-Bz6 (antibody, V domains shown)
VH: QIQLVQSGAEVKKPGASVKVSCKASGYSFTDYHINWVRQAPGQRLEWMGWIYPGSGYTKYNEKFKVRVTLTVDTSASTAYMELSSLRSEDTAVYFCARSGIYHYVSSYYFDHWGKGTTVTVSS
VL: DIQMTQSPSTLSASVGDRVTITCKASQDVGTAVAWYQQKPGKAPKLLIYWASTRHTGVPSRFSGSGSGTEFTLTISSVQPDDFATYFCQQYSSYTFGGGTKVEIK
  EC50: 2.79 nM
  Emax ratio to BG87P: 0.75 ratio
  Top MFI Mean: 144000 MFI

B10: BG87P-Bz5 (antibody, V domains shown)
VH: QIQLVQSGAEVKKPGASVKVSCKASGYSFTDYHINWVRQAPGQRLEWMGWIYPGSGYTKYNEKFKVRVTLTVDTSASTAYMELSSLRSEDTAVYYCARSGIYHYVSSYYFDHWGKGTTVTVSS
VL: DIQMTQSPSTLSASVGDRVTITCKASQDVGTAVAWYQQKPGKSPKLLIYWASTRHTGVPSRFSGSGSGTEFTLTISSVQPDDFATYFCQQYSSYTFGGGTKVEIK
  EC50: 2.55 nM
  Emax ratio to BG87P: 0.73 ratio
  Top MFI Mean: 141000 MFI

B11: BG87P-Bz3 (antibody, V domains shown)
VH: QIQLVQSGAEVKKPGASVKVSCKASGYSFTDYHINWVRQAPGQRLEWMGWIYPGSGYTKYNEKFKVRVTITVDTSASTAYMELSSLRSEDTAVYFCARSGIYHYVSSYYFDHWGKGTTVTVSS
VL: DIQMTQSPSTLSASVGDRVTITCKASQDVGTAVAWYQQKPGKSPKLLIYWASTRHTGVPSRFSGSGSGTEFTLTISSVQPDDFATYFCQQYSSYTFGGGTKVEIK
  EC50: 2.63 nM
  Emax ratio to BG87P: 0.56 ratio
  Top MFI Mean: 107000 MFI

B12: BG87P-Bz7 (antibody, V domains shown)
VH: QIQLVQSGAEVKKPGASVKVSCKASGYSFTDYHINWVRQAPGQRLEWMGWIYPGSGYTKYNEKFKVRVTLTVDTSASTAYMELSSLRSEDTAVYFCARSGIYHYVSSYYFDHWGKGTTVTVSS
VL: DIQMTQSPSTLSASVGDRVTITCKASQDVGTAVAWYQQKPGKSPKLLIYWASTRHTGVPSRFSGSGSGTEFTLTISSLQPDDFATYFCQQYSSYTFGGGTKVEIK
  EC50: 2.54 nM
  Emax ratio to BG87P: 0.81 ratio
  Top MFI Mean: 155000 MFI

B13: BG87P-m8 (antibody, V domains shown)
VH: QIQLVQSGAEVKKPGASVKVSCKASGYSFTDYAINWVRQAPGQRLEWMGWIYPGSGYTKYNEKFKVRVTLTVDTSASTAYMELSSLRSEDTAVYFCARSGIYHYVSSYYFDHWGKGTTVTVSS
VL: DIQMTQSPSTLSASVGDRVTITCKASQDVGTAVAWYQQKPGKSPKLLIYWASTRHTGVPSRFSGSGSGTEFTLTISSVQPDDFATYFCQQYSSYTFGGGTKVEIK
notes: Variant of BG87P-Bz0 with H33A; constant regions not restated (parent: human IgG1/kappa)
  EC50: 48.7 nM
  Emax ratio to BG87P: 0.28 ratio
  Top MFI Mean: 54000 MFI

— patent US20240301062A1 (BEIGENE SWITZERLAND, published 2024)
